Legend:
[1] = molecular target: KAT1 K+ channel of Arabidopsis, myc-tagged (Arabidopsis) (UniProt Q39128)
[2] = molecular target: KAT1 K+ channel of Arabidopsis, myc-tagged (Arabidopsis) (UniProt Q39128); remark: listed apart in the source

UniProt Q39128, sequence (Q39128 whole entry): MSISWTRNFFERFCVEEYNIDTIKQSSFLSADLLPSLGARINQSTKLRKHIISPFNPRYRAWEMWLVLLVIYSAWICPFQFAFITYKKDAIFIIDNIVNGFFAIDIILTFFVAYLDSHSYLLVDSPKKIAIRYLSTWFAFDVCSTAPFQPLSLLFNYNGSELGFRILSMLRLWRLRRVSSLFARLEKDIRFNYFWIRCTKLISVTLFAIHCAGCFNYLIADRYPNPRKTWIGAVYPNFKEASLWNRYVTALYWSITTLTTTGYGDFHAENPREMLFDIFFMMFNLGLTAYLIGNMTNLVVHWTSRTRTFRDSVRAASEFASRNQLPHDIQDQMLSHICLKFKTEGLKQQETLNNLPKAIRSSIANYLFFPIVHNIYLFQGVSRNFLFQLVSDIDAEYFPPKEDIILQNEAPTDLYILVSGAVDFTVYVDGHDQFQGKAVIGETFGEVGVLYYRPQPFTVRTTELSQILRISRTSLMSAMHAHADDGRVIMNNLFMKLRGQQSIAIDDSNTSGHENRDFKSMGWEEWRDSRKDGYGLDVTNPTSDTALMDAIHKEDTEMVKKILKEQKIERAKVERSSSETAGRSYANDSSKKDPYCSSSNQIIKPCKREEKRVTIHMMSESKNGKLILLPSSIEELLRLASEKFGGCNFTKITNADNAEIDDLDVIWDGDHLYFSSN

amount of SYP121^ΔC in the oocyte that gives a near-maximal effect on KAT1 gating (roughly 0.4 ng per oocyte) [1] [µM] | single-channel open probability Po of KAT1 at −120 mV after adding 1 μM SYP121^ΔC to inside-out patches [2] [%] | Substance
0.14 | – | SYP121^ΔC, cytosolic SNARE domain, expressed in oocytes (domain or fragment)
– | 3.4 | SYP121^ΔC, soluble cytosolic domain, recombinant (domain or fragment)

From PMC6220998
